Assay results: US20200040103A1

Key:
[1] = target: recombinant human KLK5 (human) (UniProt Q9Y337); test: pro-KLK7 LC/MS assay, 5 nM KLK5
[2] = target: recombinant human KLK5 (human) (UniProt Q9Y337); test: pro-KLK7 coupled assay, 5 nM KLK5
[3] = target: recombinant human KLK5 (human) (UniProt Q9Y337); test: pro-KLK1 LC/MS assay, 0.5 nM KLK5
[4] = target: recombinant human KLK5 (human) (UniProt Q9Y337); test: Kiapp assay curve, 0.125 nM KLK5, Z-VPR-pNA
[5] = target: recombinant human KLK5 (human) (UniProt Q9Y337); test: Kiapp assay curve, 0.250 nM KLK5, Z-VPR-pNA
[6] = target: recombinant human KLK5 (human) (UniProt Q9Y337); test: Kiapp assay curve, 0.500 nM KLK5, Z-VPR-pNA
[7] = target: recombinant human KLK5 (human) (UniProt Q9Y337); test: pro-KLK1 coupled assay, 0.5 nM KLK5
[8] = target: recombinant human KLK5 (human) (UniProt Q9Y337); test: Kiapp, KLK5 0.5-0.0625 nM, Z-VPR-pNA
[9] = target: recombinant human KLK5 (human) (UniProt Q9Y337); test: KLK5 direct activity assay, 5 nM KLK5, Boc-VPR-AMC
[10] = target: recombinant human KLK5 (human) (UniProt Q9Y337); test: direct activity assay, 5 nM KLK5, Boc-VPR-AMC
[11] = target: recombinant human KLK5 (human) (UniProt Q9Y337); test: pro-KLK1 coupled assay, 0.5 nM KLK5, 31.25 nM pro-KLK1, PFR-AMC
[12] = target: recombinant human KLK5 (human) (UniProt Q9Y337); test: SPR BIAcore T200, antibody captured by anti-human Fc, human KLK5 as analyte, 37 C
[13] = target: recombinant human KLK5 (human) (UniProt Q9Y337); test: Kiapp as the y-intercept of the line of IC50 (nM) versus KLK5 (nM), Z-VPR-pNA
[14] = target: recombinant human KLK5 (human) (UniProt Q9Y337); test: pro-KLK7 LC/MS assay, 5 nM KLK5, 15 nM pro-KLK7; box prints neither IC50 nor a unit, IC50 in nM per text
[15] = target: recombinant human KLK5 (human) (UniProt Q9Y337); test: pro-KLK1 LC/MS assay, 0.5 nM KLK5, 300 nM pro-KLK1; single value in the box; unit inferred, nM

Sequence of recombinant human KLK5 (human) (Q9Y337 67-293): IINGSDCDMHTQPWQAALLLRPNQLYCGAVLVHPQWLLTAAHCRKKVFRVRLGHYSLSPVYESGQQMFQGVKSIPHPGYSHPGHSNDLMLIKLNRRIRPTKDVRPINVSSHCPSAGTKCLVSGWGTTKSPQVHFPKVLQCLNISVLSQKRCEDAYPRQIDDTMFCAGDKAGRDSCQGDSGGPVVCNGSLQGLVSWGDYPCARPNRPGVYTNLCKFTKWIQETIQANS

IC50 [1]: 1.44 nM
IC50 [2]: 1.53 nM
IC50 [3]: 0.15 nM
IC50 (read off the curve) [4]: 0.04 nM
IC50 (read off the curve) [5]: 0.07 nM
IC50 (read off the curve) [6]: 0.1 nM
IC50 [7]: 0.14 nM
Ki [8]: < 0.01 nM
IC50 (read off the curve) [9]: 1 to 2 nM
IC50 [10]: 1.32 nM
IC50 (read off the curve) [11]: 0.1 to 0.2 nM
Kd [12]: < 0.001 nM
koff [12]: < 1e-05 s⁻¹
kon [12]: 2.93e+07 M⁻¹ s⁻¹
Ki [13]: 0.0081 nM
IC50 [14]: 1.44 nM
IC50 [15]: 0.152 nM
B1: 3-3F5 (antibody, V domains shown)
VH: QSVKESEGGLFKPTDTLTLTCTVSGFSLNDYGVSWVRQAPGNGLEWIGAIGSSGVAWYANWAKGRSTITRNTNLNTVTLKMASLTAADTATYFCARDRDYGYRADDATSGMDLWGPGTLVTVSS
VL: AYDMTQTPASVEAAVGGTVTIKCQASESIGNALAWYQQKPGQPPKLLIYDASDLASGVPSRFKGSGSGTQFTLTISGVECADAATYYCQQGDSHNNVDNIFGGGTEVVVK
